Substrate: C=CCSC[C@H](NC(=O)CC[C@H](N)C(=O)O)C(=O)O
Assay: HPLC of S-allyl-L-cysteine formed, crude yeast extract
Format: biochemical, Allium sativum
Details: 10 mM glycylglycine as acceptor, 50 mM Tris-HCl pH 8.0 (standard assay), 37°C, 6 h

Row | Protein | Km [µM]
1 | AsGGT1 (Allium sativum) (protein, full-length coding region (627 aa), no tag, pYES2 in Saccharomyces cerevisiae BJ2168, crude yeast protein extract) MNQMAPASSDQKLGTSLIVRENSTDRRFALHWILILAALTTLFALGLHLSSVQYRGSEELGEFRKGLKSTGGSDAVESEKGVVAADDGYCSEIGASVLRKGGHAVDAVVATAICEGVRHPMSSGIGGGAFMVVRSAKDGKALAFDARETAPLAASKDMYQNNPLAKSLGPLSMGIPGEIAGLHAAWLLYGKLPWKSLFEPSITLLKNGVKIEPYLALSINDNKDKIMSDPGLAEVFAPNGKLLQLNDTFYNFKLADSLEAIAEEGPQAFYNGSIGQKFIQDIRNLGGIVTMNDMRKYTVEITEPLYSDVLGYTLVGMPLPSSGTLGVSMVLNILGSYETLNAMKGFHGLHRLIEAVKHTLAIRMNLGDSKFVNCTKYVDDMLSPTYAEQVKERIFDNTTFDPSYYLNRWSQIRDHGTSHMSIVDSERNAVAFTSTVNMYFGGGVMSPSTGIVANNEMDDFSIPTDATEDGLPPAPSNFIEPNKRPLSSMSPLIILKDNQLAGVLGASGGMNIIPAVSQVFINHFVLGVDPLKAVQHPRFYHTLIPNLVQYENWTALDGELFEFSEAAKEFLAKRNHQLQMKSGAGAVCQFVVQNLTSSNSNKETDGIIRGMLTAVSDPRKDGSPACV | 86
2 | AsGGT2 (Allium sativum) (protein, full-length coding region (622 aa), no tag, pYES2 in Saccharomyces cerevisiae BJ2168, crude yeast protein extract) MEPAHDDLESSLLRYRPLHNDHTTVRRYPIIIIVATFVVFGLLFSIQFNLDNSERVYELKTKSGGEVVQSEVGVVAADDGYCSETGASILRKGGHAVDALVATAICEGIRHPMSSGIGGGAFIVVRSAKDGKAFAFDARETAPIASSRDMYQNNHSDKCLGPLSIGIPGEVAGLHAIWKMYGKLPWKSLFQPSIDLLRNGFKIVPYLDMSIREHADKILSDPGLREVFAPNGRLLRLNDTLYNYRLVNSLETIAREGPQALYSGSIGEKFIQDVRDLGGIITMDDMENYKVEVTEALSGNALGYTIIGMPPPSTGTVGISMVLNILGSYKTLDAVKGLIGIHRLIEAIKHTLGMRMNLGDPNFVNITEYVNDMLSPTYAEKVKERIFDNTTFDLSYYSNKWSQLSDHGTSHVSIVDSERNAVSFTSTINEYFGAGVMSPATGIIANNEMCDFATPTDETVDDIPPAPTNFIEPNKRPLSSMSPLIILKDDNLAGVIGASGGMNIIPAIAQVLINYFILGMDPLKAVQYPRFYHRFTPNVVLYENYTAVNGENFMFPEAAIKFLEERHHQLQMKAGVAAVCQFVVQNLTESGSSNANMKNGGHLRGMLTAVSDPRKDGSPACV | 1100
3 | AsGGT3 (Allium sativum) (protein, full-length coding region (605 aa), no tag, pYES2 in Saccharomyces cerevisiae BJ2168, crude yeast protein extract) MLINSYPAYHCFPHTEEFHQNFMPAYITKWLAVTLLLLVFYKPILAGDEIRHRREVITSKNGAVASDDGRCSVIGTDVLKEGGNAIDAAVAASFCLGVVSAASSGIGGGAFMLIRMANGEAHAIDMRETAPLHASQNMYNGNAILKGSGILSVAVPGEIAGLHKAWKQHGKLPWKRLVMPAAKIAKAGFEISKYLYMQMNRTKSEILKDKGMQDIYASNGTLLNPGDICRNKELACTLREIAVHGPKVFYNGSVGIKLVKDIQKLGGILTLNDLKNYRVKVNKPISANVMGYEILGMPPPSSGGAGMILILNILAQYGIPSGVSGSLGLHRFIESLKHMMAIRMNLGDPEFVNVSQVLSEMLSPKFAEDLKKRIYDNMTFDPSYYGPKWNLVNDHGTSHLSIVDSERNAVSMTSTVNSYFGAGIVSPSTGIVLNNEMDDFSIPSNSSNNNMPPPAPANFIAPLKRPLSSMSPTVVLKDGKLVASLGASGGGMIIAAATHIFLKLFAEKLDPLASALSPRSYHQLIPNVVQYEDWMTVIGDHFLVAEKERAALEKKGHVLKPLAGGTICQFVIQGADDAKELGLGIANGDLMAISDPRKGGIPDGY | 9400
